{"source": "IntAct's records for PubMed 25988182", "parents": {"B1": {"name": "Regulator of RpoS (Escherichia coli (strain K12)), P0AEV1 (parent)", "chain": "MTQPLVGKQILIVEDEQVFRSLLDSWFSSLGATTVLAADGVDALELLGGFTPDLMICDIAMPRMNGLKLLEHIRNRGDQTPVLVISATENMADIAKALRLGVEDVLLKPVKDLNRLREMVFACLYPSMFNSRVEEEERLFRDWDAMVDNPAAAAKLLQELQPPVQQVISHCRVNYRQLVAADKPGLVLDIAALSENDLAFYCLDVTRAGHNGVLAALLLRALFNGLLQEQLAHQNQRLPELGALLKQVNHLLRQANLPGQFPLLVGYYHRELKNLILVSAGLNATLNTGEHQVQISNGVPLGTLGNAYLNQLSQRCDAWQCQIWGTGGRLRLMLSAE", "partner": "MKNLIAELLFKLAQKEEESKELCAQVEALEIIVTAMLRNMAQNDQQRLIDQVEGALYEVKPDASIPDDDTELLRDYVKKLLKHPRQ"}}, "data": [{"variants_of": "B1", "conditions": "with irap_ecoli iraP", "values": [{"variant": "D58A", "effect of a mutation on the interaction": "decreasing interaction strength"}, {"variant": "D58P", "effect of a mutation on the interaction": "disrupting interaction strength"}]}]}
